Series [1] addresses T1, CTCF ZF4-7 (human, UniProt P49711 349-465).
T1 sequence: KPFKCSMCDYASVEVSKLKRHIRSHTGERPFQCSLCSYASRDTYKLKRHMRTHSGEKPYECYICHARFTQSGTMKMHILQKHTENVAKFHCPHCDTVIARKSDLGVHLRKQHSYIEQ
The series can be described thus: fluorescence polarization.

Series [2] concerns the target T1, CTCF ZF4-7. Kind of series: fluorescence polarization. This is another data set of the same source. (In general: In fluorescence polarisation assays a small probe gives low polarisation when free and higher when bound to something large.)
The target of series [3] is T2, CTCF ZF4-8 (human, UniProt P49711 348-492).
T2 sequence: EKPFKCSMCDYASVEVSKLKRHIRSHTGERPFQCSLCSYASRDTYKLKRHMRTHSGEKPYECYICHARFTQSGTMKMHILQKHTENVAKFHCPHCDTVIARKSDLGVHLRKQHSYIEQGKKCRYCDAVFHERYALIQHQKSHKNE
The series can be described thus: fluorescence polarization.

Series [4] has as its target T1, CTCF ZF4-7. Kind of series: fluorescence polarization. This is another data set of the same source.
Series [5] has as its target T1, CTCF ZF4-7. Kind of series: fluorescence polarization. The source holds these as a separate data set.
For series [6], the target named is T3, CTCF ZF3-7 (human, UniProt P49711 321-465).
T3 sequence: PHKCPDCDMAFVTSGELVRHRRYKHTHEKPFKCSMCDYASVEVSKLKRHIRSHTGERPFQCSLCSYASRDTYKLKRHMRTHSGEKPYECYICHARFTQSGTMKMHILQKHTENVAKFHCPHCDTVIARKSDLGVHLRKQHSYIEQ
The series can be described thus: fluorescence polarization.

In series [7] the target is T2, CTCF ZF4-8. The series can be described thus: fluorescence polarization. The source holds these as a separate data set.
The target of series [8] is T1, CTCF ZF4-7. Kind of series: fluorescence polarization. The source holds these as a separate data set.
In series [9] the target is T3, CTCF ZF3-7. The series can be described thus: fluorescence polarization. This is another data set of the same source.
In series [10] the target is T3, CTCF ZF3-7. The series can be described thus: crystal structure.

Like-named read-outs stand apart in the source and are kept apart here.

B1: CORE 5mC2 (dsDNA)
DNA 1: AGGACCAGCAGGGGGCGCA
DNA 2: TGCGCCCCCTGCTGGTCCT
modifications: 5mC at nt 6 of top strand (motif position 2)
For the molecule B1, the binding signal with CTCF ZF4-7 [1] was ~23 fold lower affinity than CORE.

B2: H19 (dsDNA)
DNA 1: GTTGCCGCGTGGTGGCAG
DNA 2: CTGCCACCACGCGGCAAC
Regarding B2, the binding signal with CTCF ZF4-7 [2] is ~6 fold lower affinity than CORE.

B3: control (dsDNA)
DNA 1: AATGGACGAGTCATAGGAGA
DNA 2: TTCTCCTATGACTCGTCCAT
On to B3, for which the binding signal with CTCF ZF4-8 [3] is ~10 fold higher affinity than without ZF8 on control.

B4: CORE A3G (dsDNA)
DNA 1: AGGACCGGCAGGGGGCGCA
DNA 2: TGCGCCCCCTGCCGGTCCT
Regarding B4, in the series with CTCF ZF4-7 [4], the binding signal is ~1 fold affinity vs CORE (indistinguishable).

B5: CORE 5mC12 (dsDNA)
DNA 1: AGGACCAGCAGGGGGCGCA
DNA 2: TGCGCCCCCTGCTGGTCCT
modifications: 5mC at nt 16 of top strand (motif position 12)
As for B5, the binding signal with CTCF ZF4-7 [5] was 1.5 fold higher affinity than CORE.

B6: CORE (dsDNA)
DNA 1: AGGACCAGCAGGGGGCGCA
DNA 2: TGCGCCCCCTGCTGGTCCT
In the case of B6, the binding signal in the series with CTCF ZF3-7 [6] was ~4 fold higher affinity than without ZF3; in the series with CTCF ZF4-8 [7], ~1 fold affinity vs ZF4-7 on CORE (similar); with CTCF ZF4-7 [8], 1 fold (reference); in the series with CTCF ZF3-7 [9], ~6 fold higher affinity than without ZF3.

B7: CORE crystal 17-mer (dsDNA)
DNA 1: GCCAGCAGGGGGCGCTA
DNA 2: TAGCGCCCCCTGCTGGC
In the case of B7, the binding result with CTCF ZF3-7 [10] was “binds”.

The values above are taken from paper PMC5542067.
